Assay results: ChEMBL document CHEMBL1135259, “Azapeptides as inhibitors of the hepatitis C virus NS3 serine protease” (Bioorg Med Chem Lett, 2002)

Legend:
Details in all cases: Hepacivirus hominis
[1] = substrate: CCCN(NC(=O)[C@H]1CCCN1C(=O)[C@@H](NC(=O)[C@@H](NC(=O)[C@H](CC(=O)O)NC(=O)[C@H](CCC(=O)O)NC(=O)[C@@H](NC(=O)[C@H](CC(=O)O)NC(C)=O)[C@@H](C)O)C(C)C)C(C)C)C(=O)Oc1ccc([N+](=O)[O-])cc1; assay: Michaelis-Menten constant against Hepatitis C virus NS3 protease and represented as Km
[2] = substrate: CCCC(NC(=O)[C@H]1CCCN1C(=O)[C@@H](NC(=O)[C@@H](NC(=O)[C@H](CC(=O)O)NC(=O)[C@H](CCC(=O)O)NC(=O)[C@@H](NC(=O)[C@H](CC(=O)O)NC(C)=O)[C@@H](C)O)C(C)C)C(C)C)C(=O)Oc1ccc([N+](=O)[O-])cc1; assay: (§1) Michaelis-Menten constant was determined against Hepatitis C virus NS3 protease and represented as Km
[3] = substrate: CCCN(NC(=O)[C@H]1CCCN1C(=O)[C@@H](NC(=O)[C@@H](NC(=O)[C@H](CC(=O)O)NC(=O)[C@H](CCC(=O)O)NC(C)=O)C(C)C)C(C)C)C(=O)Oc1ccc([N+](=O)[O-])cc1; assay: as §1
[4] = substrate: CCCN(NC(=O)[C@H]1CCCN1C(=O)[C@@H](NC(=O)[C@@H](NC(=O)[C@H](CC(=O)O)NC(C)=O)C(C)C)C(C)C)C(=O)Oc1ccc([N+](=O)[O-])cc1; assay: as §1
[5] = substrate: CCCN(NC(=O)[C@H]1CCCN1C(=O)[C@@H](NC(=O)[C@@H](NC(C)=O)C(C)C)C(C)C)C(=O)Oc1ccc([N+](=O)[O-])cc1; assay: as §1
[6] = substrate: CCCN(NC(=O)[C@H]1CCCN1C(=O)[C@@H](NC(=O)[C@@H](NC(=O)[C@H](CC(=O)O)NC(=O)[C@H](CCC(=O)O)NC(=O)[C@@H](NC(C)=O)[C@@H](C)O)C(C)C)C(C)C)C(=O)Oc1ccc([N+](=O)[O-])cc1; assay: Binding affinity against Hepatitis C virus NS3 protease

B1: NS3 (Hepatitis C virus), A3EZJ3 (protein)
chain: APITAYAQQTRGLLGCIITGLTGRDKNQVEGEVQIVSTAAQTFLATCINGVCWTVYHGAGTRTIASSKGPVIQMYTNVDQDLVGWPAPQGARSLTPCTCGSSDLYLVTRHADVIPVRRRGDGRGSLLSPRPISYLKGSSGGPLLCPAGHAVGIFRAAVCTRGVAKAVDFIPVEGLETTMRSPVFSDNSSPPAVPQSYQVAHLHAPTGSGKSTKVPAAYAAQGYKVLVLNPSVAATLGFGAYMSKAHGIDPNIRTGVRTITTGSPITYSTYGKFLADGGCSGSAYDIIICDECHSTDATSILGIGTVLDQAETAGARLTVLATATPPGSVTVPHPNIEEVALSTTGEIPFYGKAIPLEAIKGGRHLIFCHSKKKCDELAAKLVALGVNAVAYYRGLDVSVIPASGDVVVVATDALMTGFTGDFDSVIDCNTCVTQTVDFSLDPTFTIETTTLPQDAVSRTQRRGRTGRGKPGIYRFVTPGERPSGMFDSSVLCECYDAGCAWYELTPAETTVRLRAYMNTPGLPVCQDHLEFWEGVFTGLTHIDAHFLSQTKQSGENLPYLVAYQATVCARAQAPPPSWDQMWKCLIRLKPTLHGPTPLLYRLGAVQNEITLTHPITKYIMTCMSADLEVVT
Km [1]: 5 µM
Km [2]: 4 µM
Km [3]: 4 µM
Km [4]: 9 µM
Km [5]: 100 µM
Km [6]: 5 µM
